PMC10397247
Where two headings read alike, the source gives them in different places.

T1: 4H850-bH
T1 chain: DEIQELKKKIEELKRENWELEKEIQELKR

T2: 4H906-bH
T2 chain: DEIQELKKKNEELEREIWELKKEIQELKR

T3: 4H72-bA
T3 chain: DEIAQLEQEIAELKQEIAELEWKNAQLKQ

T4: 4H754-bA
T4 chain: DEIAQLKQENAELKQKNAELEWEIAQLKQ

T5: 4H797-bA
T5 chain: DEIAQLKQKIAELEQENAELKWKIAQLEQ

T6: 4H883-bA
T6 chain: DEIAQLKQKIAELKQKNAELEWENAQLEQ

T7: 4H908-bA
T7 chain: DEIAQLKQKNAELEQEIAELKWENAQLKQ

T8: 4H918-bA
T8 chain: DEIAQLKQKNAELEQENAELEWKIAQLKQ

T9: 4H953-bA
T9 chain: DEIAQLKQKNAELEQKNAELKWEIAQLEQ

T10: 4H967-bA
T10 chain: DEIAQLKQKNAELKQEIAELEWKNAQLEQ

T11: 4H3130-AA
T11 chain: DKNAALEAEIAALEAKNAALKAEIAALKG

T12: 4H3165-AA
T12 chain: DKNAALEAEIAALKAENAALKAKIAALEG

T13: 4H3381-AA
T13 chain: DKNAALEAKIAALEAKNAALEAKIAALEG

T14: 4H3395-AA
T14 chain: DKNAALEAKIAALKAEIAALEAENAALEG

T15: 4H3410-AA
T15 chain: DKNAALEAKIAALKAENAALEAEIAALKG

T16: 4H3590-AA
T16 chain: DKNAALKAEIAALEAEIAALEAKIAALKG

T17: 4H3697-AA
T17 chain: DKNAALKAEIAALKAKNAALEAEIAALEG

T18: 4H3753-AA
T18 chain: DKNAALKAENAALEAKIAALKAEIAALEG

T19: 4H3865-AA
T19 chain: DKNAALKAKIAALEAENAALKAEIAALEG

T20: 4H458-AA
T20 chain: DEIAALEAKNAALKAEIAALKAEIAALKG

T21: 4H485-AA
T21 chain: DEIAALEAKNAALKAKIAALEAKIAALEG

T22: 4H536-AA
T22 chain: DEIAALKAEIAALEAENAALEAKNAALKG

T23: 4H570-AA
T23 chain: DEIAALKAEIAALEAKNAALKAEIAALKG

T24: 4H629-AA
T24 chain: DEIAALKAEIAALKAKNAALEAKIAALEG

T25: 4H710-AA
T25 chain: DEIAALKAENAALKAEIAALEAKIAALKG

T26: 4H745-AA
T26 chain: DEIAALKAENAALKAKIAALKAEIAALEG

T27: 4H797-AA
T27 chain: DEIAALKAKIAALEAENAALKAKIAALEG

T28: 4H850-AA
T28 chain: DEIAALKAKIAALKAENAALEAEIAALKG

T29: 4H891-AA
T29 chain: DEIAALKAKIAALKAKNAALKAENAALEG

T30: 4H909-AA
T30 chain: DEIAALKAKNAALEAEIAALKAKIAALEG

T31: 4H930-AA
T31 chain: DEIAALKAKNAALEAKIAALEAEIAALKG

T32: 4H94-AA
T32 chain: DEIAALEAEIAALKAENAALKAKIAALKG

T33: 4H464-AA
T33 chain: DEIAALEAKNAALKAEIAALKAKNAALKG

T34: 4H483-AA
T34 chain: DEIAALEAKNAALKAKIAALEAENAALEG

T35: 4H63-AA
T35 chain: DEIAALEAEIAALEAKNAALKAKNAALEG

T36: 4H3120-AA
T36 chain: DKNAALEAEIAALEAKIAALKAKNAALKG

T37: 4H446-AA
T37 chain: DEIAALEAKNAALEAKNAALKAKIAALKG


What was measured:
4H850-bH = molecular target: T1, 4H850-bH; test: two-hybrid library CCNG1;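 note: natural log of median RNA to DNA barcode read ratio; higher means stronger binding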
4H906-bH = molecular target: T2, 4H906-bH; test: two-hybrid library CCNG1;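 note: natural log of median RNA to DNA barcode read ratio; higher means stronger binding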
4H72-bA = molecular target: T3, 4H72-bA; test: two-hybrid library CCNG1;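 note: natural log of median RNA to DNA barcode read ratio; higher means stronger binding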
4H754-bA = molecular target: T4, 4H754-bA; test: two-hybrid library CCNG1;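 note: natural log of median RNA to DNA barcode read ratio; higher means stronger binding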
4H797-bA = molecular target: T5, 4H797-bA; test: two-hybrid library CCNG1;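 note: natural log of median RNA to DNA barcode read ratio; higher means stronger binding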
4H883-bA = molecular target: T6, 4H883-bA; test: two-hybrid library CCNG1;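 note: natural log of median RNA to DNA barcode read ratio; higher means stronger binding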
4H908-bA = molecular target: T7, 4H908-bA; test: two-hybrid library CCNG1
4H918-bA = molecular target: T8, 4H918-bA; test: two-hybrid library CCNG1
4H953-bA = molecular target: T9, 4H953-bA; test: two-hybrid library CCNG1
4H967-bA = molecular target: T10, 4H967-bA; test: two-hybrid library CCNG1
4H3130-AA = molecular target: T11, 4H3130-AA; test: two-hybrid library CCmax
4H3165-AA = molecular target: T12, 4H3165-AA; test: two-hybrid library CCmax; settings: mean of both orientations
4H3381-AA = molecular target: T13, 4H3381-AA; test: two-hybrid library CCmax; settings: mean of both orientations
4H3395-AA = molecular target: T14, 4H3395-AA; test: two-hybrid library CCmax; settings: mean of both orientations
4H3410-AA = molecular target: T15, 4H3410-AA; test: two-hybrid library CCmax; settings: mean of both orientations
4H3590-AA = molecular target: T16, 4H3590-AA; test: two-hybrid library CCmax; settings: mean of both orientations
4H3697-AA = molecular target: T17, 4H3697-AA; test: two-hybrid library CCmax; settings: mean of both orientations
4H3753-AA = molecular target: T18, 4H3753-AA; test: two-hybrid library CCmax; settings: mean of both orientations
4H3865-AA = molecular target: T19, 4H3865-AA; test: two-hybrid library CCmax; settings: mean of both orientations
4H458-AA = molecular target: T20, 4H458-AA; test: two-hybrid library CCmax; settings: mean of both orientations
4H485-AA = molecular target: T21, 4H485-AA; test: two-hybrid library CCmax; settings: mean of both orientations
4H536-AA = molecular target: T22, 4H536-AA; test: two-hybrid library CCmax; settings: mean of both orientations
4H570-AA = molecular target: T23, 4H570-AA; test: two-hybrid library CCmax; settings: mean of both orientations
4H629-AA = molecular target: T24, 4H629-AA; test: two-hybrid library CCmax; settings: mean of both orientations
4H710-AA = molecular target: T25, 4H710-AA; test: two-hybrid library CCmax; settings: mean of both orientations
4H745-AA = molecular target: T26, 4H745-AA; test: two-hybrid library CCmax; settings: mean of both orientations
4H797-AA = molecular target: T27, 4H797-AA; test: two-hybrid library CCmax; settings: mean of both orientations
4H850-AA = molecular target: T28, 4H850-AA; test: two-hybrid library CCmax; settings: mean of both orientations
4H891-AA = molecular target: T29, 4H891-AA; test: two-hybrid library CCmax; settings: mean of both orientations
4H909-AA = molecular target: T30, 4H909-AA; test: two-hybrid library CCmax; settings: mean of both orientations
4H930-AA = molecular target: T31, 4H930-AA; test: two-hybrid library CCmax; settings: mean of both orientations
4H94-AA = molecular target: T32, 4H94-AA; test: two-hybrid library CCmax; settings: mean of both orientations
4H464-AA = molecular target: T33, 4H464-AA; test: two-hybrid library CCmax
4H483-AA = molecular target: T34, 4H483-AA; test: two-hybrid library CCmax; settings: mean of both orientations
4H63-AA = molecular target: T35, 4H63-AA; test: two-hybrid library CCmax; settings: mean of both orientations
4H3120-AA = molecular target: T36, 4H3120-AA; test: two-hybrid library CCmax
4H446-AA = molecular target: T37, 4H446-AA; test: two-hybrid library CCmax

Row | interaction score (4H3165-AA) | interaction score (4H3381-AA) | interaction score (4H3395-AA) | interaction score (4H3410-AA) | interaction score (4H3590-AA) | interaction score (4H3697-AA) | interaction score (4H3753-AA) | interaction score (4H3865-AA) | interaction score (4H458-AA) | interaction score (4H485-AA) | interaction score (4H536-AA) | interaction score (4H570-AA) | interaction score (4H629-AA) | interaction score (4H710-AA) | interaction score (4H745-AA) | interaction score (4H797-AA) | interaction score (4H850-AA) | interaction score (4H891-AA) | interaction score (4H909-AA) | interaction score (4H930-AA) | Binder | further results
1 | -1.3 | -1.07 | -1.29 | 2.07 | 0.624 | -0.0288 | -0.789 | 1.11 | -3.23 | -1.58 | -0.902 | -0.712 | -1.31 | -1.31 | -1.54 | -1.21 | 2.04 | -1.99 | -1.06 | -1.73 | DKNAALEAEIAALEAKNAALKAEIAALKG [4H3130-AA] | interaction score (4H3130-AA): 0.118; interaction score (4H94-AA): -0.202
2 | -1.33 | -1.79 | 2.17 | -1.25 | 1.08 | -1.39 | 0.619 | -1.52 | -1.3 | -0.737 | 1.51 | -0.988 | -1.66 | -1.56 | -1.09 | -1.9 | -0.918 | -0.991 | -1.58 | -1.5 | DKNAALEAEIAALEAKIAALKAKNAALKG [4H3120-AA] | interaction score (4H3120-AA): 1.15; interaction score (4H3130-AA; mean of both orientations): -0.632; interaction score (4H94-AA): -1.07

The next lines start with the binder.

Row | Binder | interaction score (4H3165-AA) | interaction score (4H3381-AA) | interaction score (4H3395-AA) | interaction score (4H3410-AA) | interaction score (4H3590-AA) | interaction score (4H3697-AA) | interaction score (4H3753-AA) | interaction score (4H3865-AA) | interaction score (4H458-AA) | interaction score (4H485-AA) | interaction score (4H536-AA) | interaction score (4H570-AA) | interaction score (4H629-AA) | interaction score (4H710-AA) | interaction score (4H745-AA) | interaction score (4H797-AA) | interaction score (4H850-AA) | interaction score (4H891-AA) | interaction score (4H909-AA) | interaction score (4H930-AA) | further results
3 | DEIQELKKKIEELKRENWELEKEIQELKR [4H850-bH] |  |  |  |  |  |  |  |  |  |  |  |  |  |  |  |  |  |  |  |  | interaction score (4H850-bH): 0.554; interaction score (4H906-bH): -0.227
4 | DEIAQLEQEIAELKQEIAELEWKNAQLKQ [4H72-bA] |  |  |  |  |  |  |  |  |  |  |  |  |  |  |  |  |  |  |  |  | interaction score (4H72-bA): 0.83; interaction score (4H754-bA): -0.173; interaction score (4H797-bA): -0.956; interaction score (4H883-bA): 1.05; interaction score (4H908-bA): -0.464; interaction score (4H918-bA): -0.479; interaction score (4H953-bA): -0.161; interaction score (4H967-bA): -0.0446
5 | DEIAALEAKNAALKAEIAALKAKNAALKG [4H464-AA] |  |  |  |  |  |  |  |  |  |  |  |  |  |  |  |  |  |  |  |  | interaction score (4H464-AA): -1.22; interaction score (4H483-AA): -0.618; interaction score (4H63-AA): -1.22
6 | DEIAALEAKNAALEAKNAALKAKIAALKG [4H446-AA] |  |  |  |  |  |  |  |  |  |  |  |  |  |  |  |  |  |  |  |  | interaction score (4H446-AA): -1.68; interaction score (4H464-AA; mean of both orientations): -1.77; interaction score (4H483-AA): -2.13; interaction score (4H63-AA): -1.67
